Test results as given in IntAct's records for PubMed 25966461.

B1: Metallothionein expression activator (Saccharomyces cerevisiae), P21192 (parent)
chain: MDNVVDPWYINPSGFAKDTQDEEYVQHHDNVNPTIPPPDNYILNNENDDGLDNLLGMDYYNIDDLLTQELRDLDIPLVPSPKTGDGSSDKKNIDRTWNLGDENNKVSHYSKKSMSSHKRGLSGTAIFGFLGHNKTLSISSLQQSILNMSKDPQPMELINELGNHNTVKNNNDDFDHIRENDGENSYLSQVLLKQQEELRIALEKQKEVNEKLEKQLRDNQIQQEKLRKVLEEQEEVAQKLVSGATNSNSKPGSPVILKTPAMQNGRMKDNAIIVTTNSANGGYQFPPPTLISPRMSNTSINGSPSRKYHRQRYPNKSPESNGLNLFSSNSGYLRDSELLSFSPQNYNLNLDGLTYNDHNNTSDKNNNDKKNSTGDNIFRLFEKTSPGGLSISPRINGNSLRSPFLVGTDKSRDDRYAAGTFTPRTQLSPIHKKRESVVSTVSTISQLQDDTEPIHMRNTQNPTLRNANALASSSVLPPIPGSSNNTPIKNSLPQKHVFQHTPVKAPPKNGSNLAPLLNAPDLTDHQLEIKTPIRNNSHCEVESYPQVPPVTHDIHKSPTLHSTSPLPDEIIPRTTPMKITKKPTTLPPGTIDQYVKELPDKLFECLYPNCNKVFKRRYNIRSHIQTHLQDRPYSCDFPGCTKAFVRNHDLIRHKISHNAKKYICPCGKRFNREDALMVHRSRMICTGGKKLEHSINKKLTSPKKSLLDSPHDTSPVKETIARDKDGSVLMKMEEQLRDDMRKHGLLDPPPSTAAHEQNSNRTLSNETDAL
B2: Serine/threonine-protein kinase CBK1 (Saccharomyces cerevisiae), P53894 (parent)
chain: MYNSSTNHHEGAPTSGHGYYMSQQQDQQHQQQQQYANEMNPYQQIPRPPAAGFSSNYMKEQGSHQSLQEHLQRETGNLGSGFTDVPALNYPATPPPHNNYAASNQMINTPPPSMGGLYRHNNNSQSMVQNGNGSGNAQLPQLSPGQYSIESEYNQNLNGSSSSSPFHQPQTLRSNGSYSSGLRSVKSFQRLQQEQENVQVQQQLSQAQQQNSRQQQQQLQYQQQQQQQQQQQHMQIQQQQQQQQQQQQSQSPVQSGFNNGTISNYMYFERRPDLLTKGTQDKAAAVKLKIENFYQSSVKYAIERNERRVELETELTSHNWSEERKSRQLSSLGKKESQFLRLRRTRLSLEDFHTVKVIGKGAFGEVRLVQKKDTGKIYAMKTLLKSEMYKKDQLAHVKAERDVLAGSDSPWVVSLYYSFQDAQYLYLIMEFLPGGDLMTMLIRWQLFTEDVTRFYMAECILAIETIHKLGFIHRDIKPDNILIDIRGHIKLSDFGLSTGFHKTHDSNYYKKLLQQDEATNGISKPGTYNANTTDTANKRQTMVVDSISLTMSNRQQIQTWRKSRRLMAYSTVGTPDYIAPEIFLYQGYGQECDWWSLGAIMYECLIGWPPFCSETPQETYRKIMNFEQTLQFPDDIHISYEAEDLIRRLLTHADQRLGRHGGADEIKSHPFFRGVDWNTIRQVEAPYIPKLSSITDTRFFPTDELENVPDSPAMAQAAKQREQMTKQGGSAPVKEDLPFIGYTYSRFDYLTRKNAL
partner: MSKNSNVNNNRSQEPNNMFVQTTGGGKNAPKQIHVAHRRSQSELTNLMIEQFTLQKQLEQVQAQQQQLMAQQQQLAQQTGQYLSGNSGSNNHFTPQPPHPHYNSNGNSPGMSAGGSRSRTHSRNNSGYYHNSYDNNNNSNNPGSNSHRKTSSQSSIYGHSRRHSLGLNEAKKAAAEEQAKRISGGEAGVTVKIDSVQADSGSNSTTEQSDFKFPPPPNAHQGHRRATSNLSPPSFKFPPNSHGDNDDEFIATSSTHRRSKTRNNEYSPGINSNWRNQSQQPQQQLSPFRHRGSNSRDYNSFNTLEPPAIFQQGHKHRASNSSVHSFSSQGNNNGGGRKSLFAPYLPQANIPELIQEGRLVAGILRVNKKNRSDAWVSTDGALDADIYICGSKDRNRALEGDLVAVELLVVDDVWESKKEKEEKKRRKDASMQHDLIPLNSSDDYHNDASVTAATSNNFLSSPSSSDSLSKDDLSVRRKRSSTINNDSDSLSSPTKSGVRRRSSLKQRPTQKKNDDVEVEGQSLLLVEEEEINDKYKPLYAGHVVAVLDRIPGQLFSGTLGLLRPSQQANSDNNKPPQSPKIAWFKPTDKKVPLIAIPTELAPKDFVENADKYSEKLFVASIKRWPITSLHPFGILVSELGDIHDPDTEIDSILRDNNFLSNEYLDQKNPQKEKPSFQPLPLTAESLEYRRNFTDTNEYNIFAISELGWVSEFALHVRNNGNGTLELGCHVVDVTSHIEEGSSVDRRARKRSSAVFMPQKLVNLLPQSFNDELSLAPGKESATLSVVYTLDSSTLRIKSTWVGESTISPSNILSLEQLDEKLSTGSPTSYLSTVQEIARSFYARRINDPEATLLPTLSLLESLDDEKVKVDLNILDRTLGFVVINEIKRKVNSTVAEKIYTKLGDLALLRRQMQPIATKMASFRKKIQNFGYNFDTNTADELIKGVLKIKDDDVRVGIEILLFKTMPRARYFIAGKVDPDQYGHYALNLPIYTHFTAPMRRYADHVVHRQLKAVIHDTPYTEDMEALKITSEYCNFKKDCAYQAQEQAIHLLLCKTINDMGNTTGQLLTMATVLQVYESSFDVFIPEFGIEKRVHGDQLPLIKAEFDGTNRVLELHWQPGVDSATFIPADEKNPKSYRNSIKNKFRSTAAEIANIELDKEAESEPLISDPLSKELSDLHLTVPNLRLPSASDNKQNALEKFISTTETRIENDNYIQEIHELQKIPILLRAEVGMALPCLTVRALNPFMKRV
B3: Protein SSD1 (Saccharomyces cerevisiae), P24276 (parent)
chain: B2 partner

Variants of: B1
Details: with cbk1_yeast CBK1, P53894

Variant | effect of a mutation on the interaction
N277A | decreasing interaction strength
I272A | decreasing interaction strength
F285A | disrupting interaction strength
Y283A | disrupting interaction strength
P286A | disrupting interaction strength

Variants of: B2
Details: with ssd1_yeast SSD1, P24276

Variant | effect of a mutation on the interaction
Y687A | disrupting interaction strength

Variants of: B3
Details: with cbk1_yeast CBK1, P53894

Variant | effect of a mutation on the interaction
F213W | disrupting interaction strength
F213Y | disrupting interaction strength
F213A | disrupting interaction strength
P214A | disrupting interaction strength
K212D | disrupting interaction strength
K212M | disrupting interaction strength
K212S | disrupting interaction strength
K212Q | disrupting interaction strength
K212F | disrupting interaction strength
K212A | disrupting interaction strength
K212T | disrupting interaction strength
F211A | disrupting interaction strength
F211W | disrupting interaction strength
